The values that follow come from patent publication EP1516629B1.

Positions count from the first letter of the chain named.

The target of test [1] is T1, human CD11a (human) (UniProt P20701).
T1 sequence (looked up): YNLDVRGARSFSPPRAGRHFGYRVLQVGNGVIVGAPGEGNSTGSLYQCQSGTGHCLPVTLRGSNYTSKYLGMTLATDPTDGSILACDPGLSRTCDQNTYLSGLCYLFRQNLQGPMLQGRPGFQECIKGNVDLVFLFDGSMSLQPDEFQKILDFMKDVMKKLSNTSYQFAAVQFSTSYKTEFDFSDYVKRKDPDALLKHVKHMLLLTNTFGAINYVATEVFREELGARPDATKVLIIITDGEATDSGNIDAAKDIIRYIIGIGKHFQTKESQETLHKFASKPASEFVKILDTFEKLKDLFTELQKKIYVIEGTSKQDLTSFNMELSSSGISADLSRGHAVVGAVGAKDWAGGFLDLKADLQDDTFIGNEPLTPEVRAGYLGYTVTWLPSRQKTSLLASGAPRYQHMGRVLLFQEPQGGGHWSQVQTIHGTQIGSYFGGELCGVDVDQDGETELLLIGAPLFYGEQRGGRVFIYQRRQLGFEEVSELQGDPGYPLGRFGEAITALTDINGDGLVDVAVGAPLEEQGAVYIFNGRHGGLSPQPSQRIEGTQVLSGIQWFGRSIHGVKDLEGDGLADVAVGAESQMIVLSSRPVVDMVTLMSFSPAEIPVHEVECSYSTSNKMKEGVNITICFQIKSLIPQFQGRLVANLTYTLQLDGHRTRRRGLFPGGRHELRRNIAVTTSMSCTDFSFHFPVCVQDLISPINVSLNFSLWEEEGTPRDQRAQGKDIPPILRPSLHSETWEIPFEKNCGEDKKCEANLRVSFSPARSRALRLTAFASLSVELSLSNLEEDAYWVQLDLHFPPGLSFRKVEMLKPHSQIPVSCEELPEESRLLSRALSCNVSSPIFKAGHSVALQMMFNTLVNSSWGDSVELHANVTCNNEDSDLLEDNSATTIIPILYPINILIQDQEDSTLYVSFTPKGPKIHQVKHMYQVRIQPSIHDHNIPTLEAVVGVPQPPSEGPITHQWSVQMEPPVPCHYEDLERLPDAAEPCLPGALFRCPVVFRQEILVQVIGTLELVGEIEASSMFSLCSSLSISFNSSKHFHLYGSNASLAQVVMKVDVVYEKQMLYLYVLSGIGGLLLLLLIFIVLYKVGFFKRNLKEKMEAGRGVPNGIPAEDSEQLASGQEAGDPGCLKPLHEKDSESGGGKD
Description: FACScan, Jurkat cells.

In test [2] the target is T2, rhesus CD11a (rhesus) (UniProt H9Z8N3).
T2 sequence: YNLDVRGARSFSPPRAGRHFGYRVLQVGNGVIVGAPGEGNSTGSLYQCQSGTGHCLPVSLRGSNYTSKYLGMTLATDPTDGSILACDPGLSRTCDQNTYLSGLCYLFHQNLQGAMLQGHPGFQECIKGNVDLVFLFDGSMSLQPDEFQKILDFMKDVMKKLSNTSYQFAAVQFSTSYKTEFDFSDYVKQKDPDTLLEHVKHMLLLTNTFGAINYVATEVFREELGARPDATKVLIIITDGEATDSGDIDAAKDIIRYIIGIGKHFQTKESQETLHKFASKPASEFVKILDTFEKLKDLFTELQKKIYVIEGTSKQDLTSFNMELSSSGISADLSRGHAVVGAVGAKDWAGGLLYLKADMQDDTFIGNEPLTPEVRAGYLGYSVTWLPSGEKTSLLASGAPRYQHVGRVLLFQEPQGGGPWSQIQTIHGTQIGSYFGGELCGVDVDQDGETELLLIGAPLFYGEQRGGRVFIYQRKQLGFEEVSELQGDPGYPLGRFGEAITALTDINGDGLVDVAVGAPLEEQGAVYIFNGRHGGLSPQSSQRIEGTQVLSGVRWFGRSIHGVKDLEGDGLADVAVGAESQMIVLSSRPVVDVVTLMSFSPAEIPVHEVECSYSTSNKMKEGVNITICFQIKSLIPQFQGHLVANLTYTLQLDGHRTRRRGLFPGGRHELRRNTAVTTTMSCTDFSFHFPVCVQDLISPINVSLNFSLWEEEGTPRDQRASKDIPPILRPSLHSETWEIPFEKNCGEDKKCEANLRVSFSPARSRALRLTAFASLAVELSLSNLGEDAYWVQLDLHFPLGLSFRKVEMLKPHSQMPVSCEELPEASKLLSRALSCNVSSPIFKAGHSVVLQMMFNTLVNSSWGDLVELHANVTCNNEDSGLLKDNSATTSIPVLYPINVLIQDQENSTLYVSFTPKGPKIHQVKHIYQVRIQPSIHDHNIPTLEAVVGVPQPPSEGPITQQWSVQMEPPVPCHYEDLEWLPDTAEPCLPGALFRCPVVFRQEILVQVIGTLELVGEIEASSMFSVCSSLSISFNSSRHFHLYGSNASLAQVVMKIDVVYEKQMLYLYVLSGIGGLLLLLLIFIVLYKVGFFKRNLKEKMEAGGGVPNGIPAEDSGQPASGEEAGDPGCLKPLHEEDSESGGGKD
Description: binding to rhesus peripheral blood lymphocytes.

B1: H2C9 variant IgG1 (antibody, V domains shown)
VH: EVQLVESGGGLVQPGGSLRLSCAASGYSFTGHWMNWVRQAPGKGLEWVGMIAPAASNTRYNQKFKDRFTISVDKSKNTLYLQMNSLRAEDTAVYYCARGIYFYGTTYFDYWGQGTLVTVSS
VL: DIQMTQSPSSLSASVGDRVTITCRASKTISKYLAWYQQKPGKAPKLLIYSGSTLQSGVPSRFSGSGSGTDFTLTISSLQPEDFATYYCQQHNEYPLTFGQGTKVEIK
In the case of B1, the values for the Var.EC50/HuIgG1 EC50 in test [1] and in test [2] were 34.3 and 0.22, respectively.

B2: ArgH58Ala variant IgG1 (antibody, V domains shown)
VH: B1 VH with A52H, A54S, A55D, N57E, R59A
VL: B1 VL
On to B2, for which the Var.EC50/HuIgG1 EC50 in test [1] stood at 1.1; in test [2] it was 3.3.

B3: SerH55Ala variant IgG1 (antibody, V domains shown)
VH: B1 VH with A52H, A54S, A55D, S56A, N57E
VL: B1 VL
For the molecule B3, the Var.EC50/HuIgG1 EC50 in test [1] and in test [2] was 1.3 throughout.

B4: LysH64Ala variant IgG1 (antibody, V domains shown)
VH: B1 VH with A52H, A54S, A55D, N57E, K65A
VL: B1 VL
Turning to B4, the Var.EC50/HuIgG1 EC50 stood at 2.5 in test [1] and 1.2 in test [2].

B5: LysH73Arg variant IgG1 (antibody, V domains shown)
VH: B1 VH with A52H, A54S, A55D, N57E, K74R
VL: B1 VL
Consider B5, for which the Var.EC50/HuIgG1 EC50 in test [1] turned out to be 4.6; in test [2], 5.5.

B6: ThrH30Ala variant IgG1 (antibody, V domains shown)
VH: B1 VH with T30A, A52H, A54S, A55D, N57E
VL: B1 VL
As for B6, the Var.EC50/HuIgG1 EC50 in test [1] is 1.7; in test [2] it was 1.3.

B7: SerH53Ala variant IgG1 (antibody, V domains shown)
VH: B1 VH with A52H, A55D, N57E
VL: B1 VL
For B7, the Var.EC50/HuIgG1 EC50 in test [1] worked out at 1.8; in test [2] it was 0.7.

B8: HisH52Ala variant IgG1 (antibody, V domains shown)
VH: B1 VH with A54S, A55D, N57E
VL: B1 VL
Consider B8, for which the Var.EC50/HuIgG1 EC50 was found to be 1.5 in test [1] and 0.7 in test [2].

B9: AspH65Ala variant IgG1 (antibody, V domains shown)
VH: B1 VH with A52H, A54S, A55D, N57E, D66A
VL: B1 VL
For the molecule B9, the Var.EC50/HuIgG1 EC50 is 0.8 in test [1] and 1.1 in test [2].

B10: LysH62Ala variant IgG1 (antibody, V domains shown)
VH: B1 VH with A52H, A54S, A55D, N57E, K63A
VL: B1 VL
For the molecule B10, the Var.EC50/HuIgG1 EC50 is 1.8 in test [1] and 4.9 in test [2].

B11: GlyH31Ala variant IgG1 (antibody, V domains shown)
VH: B1 VH with G31A, A52H, A54S, A55D, N57E
VL: B1 VL
Consider B11, for which the values for the Var.EC50/HuIgG1 EC50 in test [1] and in test [2] were 1.2 and 2.4, respectively.

B12: GluH56Ala variant IgG1 (antibody, V domains shown)
VH: B1 VH with A52H, A54S, A55D, N57A
VL: B1 VL
The molecule B12 registered a Var.EC50/HuIgG1 EC50 in test [1] of 4. In test [2], this molecule came in with a Var.EC50/HuIgG1 EC50 of 0.3 and a fold improvement in binding over HuIgG1 of 3 fold.

B13: H2A3 variant IgG1 (antibody, V domains shown)
VH: B1 VH with A54S, A55D, S56A, N57E
VL: B1 VL
Turning to B13, the Var.EC50/HuIgG1 EC50 in test [1] came to 4.6; in test [2] it was 1.3.

B14: H2 variant IgG1 (antibody, V domains shown)
VH: B1 VH with A55D, S56A, N57E
VL: B1 VL
B14: the Var.EC50/HuIgG1 EC50 in test [1] is 14.1. For the same molecule, in test [2], the Var.EC50/HuIgG1 EC50 came out at 0.055 and the fold better binding than HuIgG1 is 18 fold.

B15: GlnH61Ala variant IgG1 (antibody, V domains shown)
VH: B1 VH with A52H, A54S, A55D, N57E, Q62A
VL: B1 VL
As for B15, the Var.EC50/HuIgG1 EC50 in test [1] turned out to be 4.1; in test [2], 5.3.

B16: H2A2 variant IgG1 (antibody, V domains shown)
VH: B1 VH with A52H, A55D, S56A, N57E
VL: B1 VL
With B16, the Var.EC50/HuIgG1 EC50 in test [1] was 1.9; in test [2] it was 1.1.
